± gives the uncertainty stated by the source.
Experiment: protein stability index of a GFP-peptide fusion (yeast GPS) (PSI 1-4); higher = more stable; sorted into four equal gates, so the index is relative within each strain
Outline: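 Tiled yeast protein peptides of 17 residues were each joined downstream of GFP, on plasmids that also express Cherry. The pooled library was maintained in yeast, and mid-log cultures in leucine-free medium were sorted into four equal gates on the GFP/Cherry ratio. Plasmids from every gate were amplified by PCR and sequenced on Illumina, with barcodes linking reads to strains. The protein stability index of a peptide is its gate-number-weighted read frequency summed over the gates.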

## SKEFSAYVSGLFEIYRD [YJR042W/NUP85]
doa10∆
  protein stability index: 1.76 ± 0.093
pdr5∆
  protein stability index: 2.75 ± 0.15
san1∆
  protein stability index: 2.7 ± 0.19
ubr1∆
  protein stability index: 2.31 ± 0.08

## SKELRAQYGIKALPIRR [RPL26A]
doa10∆
  protein stability index: 3.44 ± 0.19
pdr5∆
  protein stability index: 3.41 ± 0.17
san1∆
  protein stability index: 3.49 ± 0.14

## SKKETKLQENRTLLTEE [SMC2]
pdr5∆
  protein stability index: 3.23 ± 0.24
ubr1∆
  protein stability index: 3.08 ± 0.14

## SKKGSLENNIREFPEYF [RPL10]
doa10∆
  protein stability index: 2.95 ± 0.12
pdr5∆
  protein stability index: 3.23 ± 0.084
san1∆
  protein stability index: 3.29 ± 0.057
ubr1∆
  protein stability index: 3.36 ± 0.069

## SKKISNTAAALVSLLDE [YAR002W/NUP60]
doa10∆
  protein stability index: 2.9 ± 0.095
pdr5∆
  protein stability index: 2.67 ± 0.086
san1∆
  protein stability index: 2.92 ± 0.052
ubr1∆
  protein stability index: 2.78 ± 0.07

## SKKIVPSPKKVAIDQDK [SIR4]
doa10∆
  protein stability index: 2.73 ± 0.078
pdr5∆
  protein stability index: 2.91 ± 0.066
san1∆
  protein stability index: 2.59 ± 0.06
ubr1∆
  protein stability index: 2.92 ± 0.057

## SKKRQAEKLVPLPICHA [YML031W/NDC1]
doa10∆
  protein stability index: 2.33 ± 0.12
pdr5∆
  protein stability index: 2.5 ± 0.049
san1∆
  protein stability index: 2.39 ± 0.087
ubr1∆
  protein stability index: 2.39 ± 0.093

## SKLLVPQKNVKIQVVDR [PRE10]
doa10∆
  protein stability index: 3.02 ± 0.074
pdr5∆
  protein stability index: 2.84 ± 0.049
san1∆
  protein stability index: 2.53 ± 0.099
ubr1∆
  protein stability index: 2.72 ± 0.052

## SKMSDESFAELMTKLNS [RPC17]
doa10∆
  protein stability index: 3.29 ± 0.12
pdr5∆
  protein stability index: 3.67 ± 0.12
san1∆
  protein stability index: 3.09 ± 0.098
ubr1∆
  protein stability index: 3.37 ± 0.12

## SKQVTDYYQSIYAKYGA [FAS2]
doa10∆
  protein stability index: 2.73 ± 0.051
pdr5∆
  protein stability index: 2.67 ± 0.052
san1∆
  protein stability index: 2.54 ± 0.057
ubr1∆
  protein stability index: 2.77 ± 0.041

## SKRSKIDIINKLILHAI [YML103C/NUP188]
doa10∆
  protein stability index: 1.23 ± 0.13
pdr5∆
  protein stability index: 1.23 ± 0.11
san1∆
  protein stability index: 1.04 ± 0.13
ubr1∆
  protein stability index: 1.1 ± 0.079

## SKSPSEWQDIIHQREQE [CSE2]
doa10∆
  protein stability index: 3.33 ± 0.16
pdr5∆
  protein stability index: 3.31 ± 0.12
san1∆
  protein stability index: 3.25 ± 0.085
ubr1∆
  protein stability index: 3.2 ± 0.14

## SKTWETYEMRIHKRYID [RPS20]
doa10∆
  protein stability index: 2.45 ± 0.13
pdr5∆
  protein stability index: 3 ± 0.091
san1∆
  protein stability index: 1.84 ± 0.18
ubr1∆
  protein stability index: 3.21 ± 0.072

## SKVTVPPSKHSTLTLSD [ESC2]
doa10∆
  protein stability index: 3.29 ± 0.12
pdr5∆
  protein stability index: 3.09 ± 0.13
san1∆
  protein stability index: 2.9 ± 0.071
ubr1∆
  protein stability index: 3.1 ± 0.098

## SKYCEKSLPLLITVMEK [YCS4]
doa10∆
  protein stability index: 1.76 ± 0.052
pdr5∆
  protein stability index: 1.86 ± 0.048
san1∆
  protein stability index: 2.12 ± 0.067
ubr1∆
  protein stability index: 1.87 ± 0.039

## SKYLIKQIDIPNFNVEI [ECM29]
doa10∆
  protein stability index: 1.57 ± 0.069
pdr5∆
  protein stability index: 2.01 ± 0.091
san1∆
  protein stability index: 2.57 ± 0.072
ubr1∆
  protein stability index: 2.39 ± 0.059

## SLAVRSLQDRSSLVRRN [YCS4]
doa10∆
  protein stability index: 2.4 ± 0.041
pdr5∆
  protein stability index: 2.71 ± 0.047
san1∆
  protein stability index: 2.35 ± 0.045
ubr1∆
  protein stability index: 2.59 ± 0.038

## SLFHTAVSVANGFMHAG [RPN2]
doa10∆
  protein stability index: 1.18 ± 0.087
pdr5∆
  protein stability index: 1.51 ± 0.077
san1∆
  protein stability index: 1.29 ± 0.25
ubr1∆
  protein stability index: 1.57 ± 0.13

## SLFTYFREAIVATEPLL [PRP8]
doa10∆
  protein stability index: 1.82 ± 0.048
pdr5∆
  protein stability index: 1.83 ± 0.051
san1∆
  protein stability index: 2.73 ± 0.063
ubr1∆
  protein stability index: 1.97 ± 0.041

## SLISVLEASLNSITKDN [YJL039C/NUP192]
doa10∆
  protein stability index: 2.46 ± 0.052
pdr5∆
  protein stability index: 2.24 ± 0.038
san1∆
  protein stability index: 2.31 ± 0.048
ubr1∆
  protein stability index: 2.09 ± 0.026

## SLKCTDPYELKGEVVLV [ITC1]
doa10∆
  protein stability index: 2.59 ± 0.2
pdr5∆
  protein stability index: 3.1 ± 0.24
san1∆
  protein stability index: 2.44 ± 0.2
ubr1∆
  protein stability index: 2.96 ± 0.13

## SLKQYAGNLITTPEINN [SRP68]
doa10∆
  protein stability index: 2.69 ± 0.073
pdr5∆
  protein stability index: 2.88 ± 0.061
san1∆
  protein stability index: 2.92 ± 0.076
ubr1∆
  protein stability index: 2.31 ± 0.041

## SLLKTKLKQQSSTDIPS [RRI1]
doa10∆
  protein stability index: 2.15 ± 0.05
pdr5∆
  protein stability index: 2.4 ± 0.054
san1∆
  protein stability index: 2.21 ± 0.082
ubr1∆
  protein stability index: 2.44 ± 0.062

## SLLLAHFFSKSCSFFAK [NUT1]
doa10∆
  protein stability index: 1.83 ± 0.057
pdr5∆
  protein stability index: 1.62 ± 0.043
san1∆
  protein stability index: 1.61 ± 0.074
ubr1∆
  protein stability index: 1.68 ± 0.039

## SLLNLLNISPFTFGLTV [RPP0]
doa10∆
  protein stability index: 1.79 ± 0.049
pdr5∆
  protein stability index: 1.91 ± 0.049
san1∆
  protein stability index: 1.56 ± 0.078
ubr1∆
  protein stability index: 1.84 ± 0.044

## SLLPYYHLTKAVKLGDL [RPN3]
doa10∆
  protein stability index: 2.21 ± 0.052
pdr5∆
  protein stability index: 1.74 ± 0.052
san1∆
  protein stability index: 1.72 ± 0.073
ubr1∆
  protein stability index: 1.78 ± 0.066

## SLNEVGTLKVILNLYSS [YML103C/NUP188]
doa10∆
  protein stability index: 1.93 ± 0.12
pdr5∆
  protein stability index: 2.11 ± 0.29
ubr1∆
  protein stability index: 2.4 ± 0.11

From the supplement of paper PMC9732359
